Test results: article PMC9338922, “DltC acts as an interaction hub for AcpS, DltA and DltB in the teichoic acid D-alanylation pathway of Lactiplantibacillus plantarum” (Scientific Reports, 2022)

T1: DltA-∆P-loop mutant, C-terminal His6 tag (Lactiplantibacillus plantarum, UniProt Q88VM6 1-508, missing the loop region comprised between T152 and K160)
T1 sequence: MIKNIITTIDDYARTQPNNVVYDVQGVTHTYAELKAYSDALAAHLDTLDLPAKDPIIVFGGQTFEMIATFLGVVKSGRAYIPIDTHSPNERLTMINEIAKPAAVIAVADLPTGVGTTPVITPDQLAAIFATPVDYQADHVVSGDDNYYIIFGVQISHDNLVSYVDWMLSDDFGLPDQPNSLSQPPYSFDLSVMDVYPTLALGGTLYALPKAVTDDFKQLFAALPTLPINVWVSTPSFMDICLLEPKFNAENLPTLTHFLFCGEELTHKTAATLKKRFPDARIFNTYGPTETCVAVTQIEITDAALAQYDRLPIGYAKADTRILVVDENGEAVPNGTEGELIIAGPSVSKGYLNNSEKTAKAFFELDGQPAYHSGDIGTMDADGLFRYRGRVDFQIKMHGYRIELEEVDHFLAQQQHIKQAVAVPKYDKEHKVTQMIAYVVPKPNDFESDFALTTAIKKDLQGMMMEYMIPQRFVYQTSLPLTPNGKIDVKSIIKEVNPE

T2: L. plantarum DltA, full-length wild type, C-terminal His6 tag (Lactiplantibacillus plantarum, UniProt Q88VM6 1-508)
T2 construct: DltA (D-alanine-D-alanyl carrier protein ligase) of Lactiplantibacillus plantarum, full-length wild type, 508 residues, cloned in pT7-7; the C-terminal domain is not visible; also called LpDltA; D-alanine-D-alanyl carrier protein ligase; source: E. coli BL21 (DE3), purified (Ni-NTA, SEC)
T2 sequence (looked up): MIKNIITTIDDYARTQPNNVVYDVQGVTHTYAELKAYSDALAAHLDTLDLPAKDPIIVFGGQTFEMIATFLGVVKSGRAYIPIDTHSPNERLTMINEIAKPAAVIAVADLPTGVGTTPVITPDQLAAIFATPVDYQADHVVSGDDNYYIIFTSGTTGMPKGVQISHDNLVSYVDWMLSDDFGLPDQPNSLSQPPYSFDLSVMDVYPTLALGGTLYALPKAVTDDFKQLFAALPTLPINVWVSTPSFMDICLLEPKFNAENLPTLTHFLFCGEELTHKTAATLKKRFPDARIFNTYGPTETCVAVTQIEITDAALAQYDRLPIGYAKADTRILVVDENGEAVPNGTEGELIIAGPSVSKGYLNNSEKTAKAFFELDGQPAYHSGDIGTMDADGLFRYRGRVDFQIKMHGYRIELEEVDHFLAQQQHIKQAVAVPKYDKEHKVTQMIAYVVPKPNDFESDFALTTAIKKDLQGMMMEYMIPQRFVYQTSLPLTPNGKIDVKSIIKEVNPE

T3: DltA-∆P-loop mutant, C-terminal His6 tag (Lactiplantibacillus plantarum, UniProt Q88VM6 1-508, missing the loop region comprised between T152 and K160)
T3 construct: DltA of Lactiplantibacillus plantarum, full length but missing the P-loop region comprised between Thr152 and Lys160, cloned in pT7-7; source: E. coli BL21 (DE3), purified (Ni-NTA, SEC)
T3 sequence (looked up): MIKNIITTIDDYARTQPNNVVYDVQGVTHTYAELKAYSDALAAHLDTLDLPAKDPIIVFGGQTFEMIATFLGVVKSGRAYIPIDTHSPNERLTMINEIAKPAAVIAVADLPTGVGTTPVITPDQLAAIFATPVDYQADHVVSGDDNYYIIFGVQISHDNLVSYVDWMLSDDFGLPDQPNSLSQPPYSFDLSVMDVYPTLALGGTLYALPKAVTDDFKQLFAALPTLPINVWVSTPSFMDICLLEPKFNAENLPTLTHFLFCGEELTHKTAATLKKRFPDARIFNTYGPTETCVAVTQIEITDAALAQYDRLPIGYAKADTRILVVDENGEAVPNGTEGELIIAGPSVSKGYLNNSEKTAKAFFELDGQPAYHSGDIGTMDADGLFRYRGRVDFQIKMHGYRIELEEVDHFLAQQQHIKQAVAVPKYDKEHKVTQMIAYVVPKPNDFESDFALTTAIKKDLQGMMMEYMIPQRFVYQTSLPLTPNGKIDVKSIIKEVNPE

T4: L. plantarum AcpS, full-length wild type, C-terminal His6 tag (Lactiplantibacillus plantarum, UniProt Q88Z44 1-120)
T4 construct: AcpS (acyl-carrier protein synthase) of Lactiplantibacillus plantarum, full-length wild type, cloned in pT7-7 (NdeI/PstI); AcpS is a trimer in the crystal structure of the complex (PDB 7R49); also called LpAcpS; acyl-carrier protein synthase; source: E. coli BL21 (DE3), purified (Ni-NTA, Superdex 200 SEC)
T4 sequence (looked up): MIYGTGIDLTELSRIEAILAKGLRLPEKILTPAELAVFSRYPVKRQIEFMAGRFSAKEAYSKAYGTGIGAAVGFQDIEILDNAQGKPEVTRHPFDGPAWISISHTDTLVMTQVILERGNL


Experiments:
[1] = molecular target: T1, DltA-∆P-loop mutant, C-terminal His6 tag; test: MST
[2] = molecular target: T2, L. plantarum DltA, full-length wild …; test: MST; one protein labelled with NHS red fluorescent dye (RED-NHS Monolith NT kit); Hepes 25 mM pH 7.5, NaCl 300 mM, Tween20 0.05%; 22 °C; triplicate; details: both partners purified
[3] = molecular target: T3, DltA-∆P-loop mutant, C-terminal His6 tag; test: as above; details: both partners purified
[4] = molecular target: T4, L. plantarum AcpS, full-length wild …; test: SEC; purified AcpS mixed with apo- or holo-DltC1, mixture subjected to size exclusion chromatography; details: both partners purified
[5] = molecular target: the molecule itself; test: crystal structure; AcpS/DltC1 complex at 4.8 mg/ml, sitting-drop vapor diffusion at 293 K, 20% PEG3350 and 0.2 M sodium malonate; 1.88 Å
[6] = molecular target: L. plantarum DltC1, full-length wild type, C-terminal His6 tag (Lactiplantibacillus plantarum) (UniProt Q88VM8); test: as above

Binder	Kd [1]	Kd [2]	binding result [3]	binding result [4]	stoichiometry N [5]	stoichiometry N (AcpS:DltC1 (3:3)) [6]
holo-DltC1 (DltC1 fully modified by phosphopantetheine), C-terminal His6 tag (natural protein, Lactiplantibacillus plantarum, UniProt Q88VM8 1-80, looked up, phosphopantetheine (Ppant) covalently attached to Ser38, confirmed by mass spectrometry, DltC1 (nc8_1734) of Lactiplantibacillus plantarum, wild type, co-expressed with wild type AcpS from pRSF-Duet1; also called Ppant-DltC1; Ppant-modified DltC; source: E. coli BL21 (DE3), co-expressed with LpAcpS from pRSF-Duet1, purified (Ni-NTA, SEC); 15N-labelled in M9 minimal media for NMR) MTMDDTKATVLSILADLTGEDVSSNMDVNLFDEGILDSMGSVQLLLELQNQLGIEVPVSEFQRSEWDTPAKIVAKVENLQ	0.18 µM	5.74 µM	binds	–	–	–
apo-DltC1-S38A, C-terminal His6 tag (natural protein, Lactiplantibacillus plantarum, UniProt Q88VM8 1-80, looked up, DltC1 (nc8_1734) of Lactiplantibacillus plantarum, full length, catalytic Ser38 mutated to Ala, cloned in pET-28a(+); source: E. coli BL21 (DE3)-RIPL, purified (Ni-NTA, SEC); 15N- or 13C,15N-labelled in M9 minimal media for NMR) MTMDDTKATVLSILADLTGEDVSSNMDVNLFDEGILDAMGSVQLLLELQNQLGIEVPVSEFQRSEWDTPAKIVAKVENLQ	–	8.89 µM	binds	binds	–	–
L. plantarum AcpS, full-length wild type, untagged (enzyme, Lactiplantibacillus plantarum, UniProt Q88Z44 1-120, looked up, AcpS of Lactiplantibacillus plantarum, full-length wild type, pT7-7 with a stop codon before the TEV cleavage site and the His6 tag; also called untagged LpAcpS^WT; untagged AcpS; source: E. coli BL21 (DE3); lysate mixed with Ni-NTA-purified DltC1, complex purified (Ni-NTA, Superdex 200 SEC)) MIYGTGIDLTELSRIEAILAKGLRLPEKILTPAELAVFSRYPVKRQIEFMAGRFSAKEAYSKAYGTGIGAAVGFQDIEILDNAQGKPEVTRHPFDGPAWISISHTDTLVMTQVILERGNL	–	–	–	–	3	1
